# Test results reported in patent US12448429B2, “T cell receptors specific to b-cell maturation antigen for treatment of cancer” (Dana-Farber Cancer Institute, Inc., priority 2019, dated 2025).
# Key:
# HLA-A2 [1] = biological target: T1, HLA-A2 (Homo sapiens, UniProt P04439, D140Y/D185E/D98H/E176V/E277Q/G131W/G231S/I119V/I121R/I166T/I218V/L300P/L318F/N151K/N90K/P208A/P217A/Q86G/Q94H/R138H/R169H/T345S); experiment: HLA-A2 binding affinity of BCMA peptides on T2 cells (HLA-A2 up-regulation, MFI by flow cytometry); conditions: for HLA-A2 binding affinity among the six native peptides: dose-dependent, Example 12; for HLA-A2 specificity (HLA-A2 binding capacity, MFI): six native BCMA peptides compared, T2 cells pulsed overnight with 0-200 μg/ml peptide, FIG. 2; for change of HLA-A2 binding affinity of heteroclitic peptide compared to its native peptide: T2 cells, FIG. 3, Example 12: n=3, p<0.05
# T1 construct: endogenous in cells; host or cells: T2 cell line (human B and T cell hybrid), provided by Dr. J. Molldrem
# Experimental: The listed BCMA peptides were evaluated for HLA-A2-specific binding capacity using the T2 cell line. In the assay, T2 cells were washed, resuspended in serum-free AIM-V medium to a final concentration of 1×10^6 cells/ml and transferred into wells of a 24-well tissue culture plate. The cells were pulsed with different concentrations of respective BCMA peptide (0-200 μg/ml) plus 3 μg/ml human […] (Sigma) and incubated at 37° C., 5% CO2 in humidified air. Following overnight incubation, the cells were washed, stained with mouse anti-human HLA-A2-FITC mAb for 15 minutes at 4° C., washed and analyzed using a FACSort™ flow cytometer with CellQuest™ v2.1 software (Becton Dickinson, San Jose, Calif.). […] Among the BCMA peptides evaluated, “#4. […] (FIG. 2).
# (§1) The native and heteroclitic BCMA peptides were examined for HLA-A2 binding stability using the T2 cell line. T2 cells were pulsed with the respective peptide. After overnight incubation, the cells were washed to remove unbound peptide; they were evaluated for binding affinity as shown above and stability as following. The cells were incubated with 10 μg/ml Brefeldin A (Sigma) at 37° C. and 5% CO2 for 1 hour to block cell surface expression of newly synthesized HLA-A2 molecules. Peptide/HLA-A2 binding stability was evaluated at 0, 2, 4, 6 and 18 hours post-Brefeldin A treatment. Following the incubation period, the cells were harvested, washed, stained with mouse anti-human HLA-A2-FITC mAb and analyzed by flow cytometry. […] Therefore, the Heteroclitic #4 BCMA72-80 (YLMFLLRKI (SEQ ID NO: 37)) peptide was selected for further evaluation of its immunogenic potential to generate MM-specific cytotoxic T cells (CTLs).
# (§2) T2 cells were pulsed overnight with various doses of peptide plus β2-microglobulin (3 μg/ml) (Sigma, St Louis, Mo.). Following overnight incubation, the cells were stained with HLA-A2-PE mAb and analyzed using a FACSCanto™ flow cytometer (BD). Peptide/HLA-A2 complex stability was measured on peptide loaded T2 cells at 0, 2, 4, 6 and 14 hours post-brefeldin A treatment by staining with HLA-A2-PE mAb and flow cytometric analysis.
# HLA-A2 [2] = biological target: T1, HLA-A2; experiment: Peptide/HLA-A2 binding stability on peptide-pulsed T2 cells after Brefeldin A treatment; conditions: for HLA-A2 stability (and affinity) of heteroclitic peptides: 0, 2, 4, 6 and 14 hours post-brefeldin A, compared with native peptides and HIV-Gag77-85 positive control
# Experimental: as §1, §2
# [3] = listed as heteroclitic BCMA72-80
Sequence,HLA-A2 binding affinity among the six native peptides (HLA-A2 [1]),"HLA-A2 specificity (HLA-A2 binding capacity, MFI) (HLA-A2 [1])",change of HLA-A2 binding affinity of heteroclitic peptide compared to its native peptide (HLA-A2 [1]),further results
AILWTCLGL [#5. BCMA54-62],highest HLA-A2 binding affinity,second highest level,,
VLMFLLRKI [#4. BCMA72-80],highest HLA-A2 binding affinity,highest level of HLA-A2 specificity,,
YILWTCLGL [Heteroclitic #5 BCMA54-62],,,increased from their native peptide,change of HLA-A2 binding affinity of heteroclitic peptide compared to its native peptide (HLA-A2 [1]; listed as heteroclitic hBCMA54-62): highest increase in HLA-A2 binding affinity; HLA-A2 stability (and affinity) of heteroclitic peptides (HLA-A2 [2]): further enhanced
YLMFLLRKI [Heteroclitic #4 BCMA72-80],,,increased from their native peptide,"change of HLA-A2 binding affinity of heteroclitic peptide compared to its native peptide (HLA-A2 [1]; [3]): highest increase in HLA-A2 binding affinity; HLA-A2 stability (and affinity) of heteroclitic peptides (HLA-A2 [2]; listed as BCMA72-80 (YLMFLLRKI (SEQ ID NO: 37))): highest level of HLA-A2 affinity and stability; HLA-A2 stability (and affinity) of heteroclitic peptides (HLA-A2 [2]; [3]): further enhanced; HLA-A2 binding stability compared to the native peptide (HLA-A2 [2]; 0, 2, 4, 6 and 18 hours post-Brefeldin A, 50 ug/ml, FIG. 4): significant improvement"
YQNEYFDSL [heteroclite BCMA9-17],,,did not alter its HLA-A2 affinity status,
